Measurements: US9266964

Key:
human plasma kallikrein [1] = biological target: T1, human plasma kallikrein (human, UniProt P03952 20-390; P03952 391-638); experiment: apparent inhibition constant (Ki,app) against human pKal, enzyme inhibition
T1 construct: also called pKal; human pKal

human plasma kallikrein [2] = biological target: T1, human plasma kallikrein; experiment: ELISA, biotinylated plasma kallikrein coated on microtiter plate, signal divided by streptavidin background
Description: Abbreviations used: "T/B" is the ELISA signal obtained using of the "target" (biotinylated plasma kallikrein) divided by the ELISA signal of the "background" (streptavidin); both of which were coated on microtiter plates. "nd" is not determined. The symbol "q" refers to the amber suppressible stop codon (TAG), which is translated as glutamine (Q) in strains of *E. coli* such as the TG1 cells that were used to express the Fab fragments.

T1 sequence (P03952 20-390, chain 1 of 2): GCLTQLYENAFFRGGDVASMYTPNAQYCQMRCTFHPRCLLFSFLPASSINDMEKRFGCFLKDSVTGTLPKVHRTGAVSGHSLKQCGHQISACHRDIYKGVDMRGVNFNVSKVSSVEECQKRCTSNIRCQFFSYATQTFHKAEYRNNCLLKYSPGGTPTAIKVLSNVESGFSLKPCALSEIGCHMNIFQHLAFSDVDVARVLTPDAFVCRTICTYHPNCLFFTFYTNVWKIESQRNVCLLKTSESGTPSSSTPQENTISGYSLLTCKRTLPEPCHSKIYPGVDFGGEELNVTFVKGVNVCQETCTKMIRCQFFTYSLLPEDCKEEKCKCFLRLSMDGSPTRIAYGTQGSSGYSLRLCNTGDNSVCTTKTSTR
T1 sequence (P03952 391-638, chain 2 of 2): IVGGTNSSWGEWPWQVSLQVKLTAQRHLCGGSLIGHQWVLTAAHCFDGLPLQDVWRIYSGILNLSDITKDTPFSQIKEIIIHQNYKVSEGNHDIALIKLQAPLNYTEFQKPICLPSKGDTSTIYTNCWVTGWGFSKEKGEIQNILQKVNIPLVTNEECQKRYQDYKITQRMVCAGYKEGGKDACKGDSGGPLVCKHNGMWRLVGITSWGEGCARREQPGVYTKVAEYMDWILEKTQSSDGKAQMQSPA

Binder	Ki (human plasma kallikrein [1]) [nM]	Human pKal ELISA (T/B) (human plasma kallikrein [2])
M110-C12 (Fab, V domains shown, Printed HC runs from VH into the start of CH1) VH: EVQLLESGGGLVQPGGSLRLSCAASGFTFSYYEMDWVRQAPGKGLEWVSGISSSGGHTAYADSVKGRFTISRDNSKNTLYLQMNSLRAEDTATYYCARERRSSSRARYYYGMDVWGQGTTVTVSS VL: DIQMTQSPLSLSVTPGEPASISCRSSLSLLHSNGYNYLDWYVQRPGQSPQLLMYLSSTRASGVPDRFSGSGSGTDFTLEISRVEAEDVGVYYCMQPLETPPTFGGGTKVEIK	< 100	2.4 ratio of ELISA signal on target to background (streptavidin)
M76-D01 (Fab, V domains shown, Printed HC runs from VH into the start of CH1 (printed end APSPKS)) VH: EVQLLESGGGLVQPGGSLRLSCAASGFTFSFYAMHWVRQAPGKGLEWVSGIVPSGGRTHYADSVKGRFTISRDNSKNTLYLQMNSLRAEDTAVYYCATDSSGSPNPLFDYWGQGTLVTVSS VL: DIVMTQTPPSLPVNPGEPASISCRSSQSLSDDGNTYLDWYLQRPGQSPQLLIHTLSYRASGVPDRFSGSGSGTDFTLKISRVEAEDVGVYYCMQGTHWPPTFGQGTKVEIK	< 100	11.2 ratio of ELISA signal on target to background (streptavidin)
M10-F10 (Fab, V domains shown, Printed HC runs from VH into the start of CH1) VH: EVQLLESGGGLVQPGGSLRLSCAASGFTFSFYNMNWVRQAPGKGLEWVSSISPSGGETNYADSVKGRFTISRDNSKNTLYLQMNSLRAEDTAVYYCARGGGAYRNNWWGGFDIWGLGTMVTVSS VL: DIQMTQSPSSLSASVGDRVTITCRASQSISVYLNWYQHKPGKAPKLLIYGASNLQFGVPSRFSGSGYGTDFTLTISSLQPEDFATYHCQQTFSLFTFGGGTKVEIK	< 100	39.2 ratio of ELISA signal on target to background (streptavidin)
M6-D09 (Fab, V domains shown, Printed HC runs from VH into the start of CH1; also called M06-D09; 559A-M06-D09) VH: EVQLLESGGGLVQPGGSLRLSCAASGFTFSFYYMVWVRQAPGKGLEWVSVIYPSGGITVYADSVKGRFTISRDNSKNTLYLQMNSLRAEDTAVYYCARDKWAVMPPYYYYAMDVWGQGTTVTVSS VL: DIQMTQSPSSLSASVGDRVTITCRASQSIRNYLNWYQQKPGKAPNLLIYAASTLQSGVPARFSGSGSGTDFTLTISSLQPEDFATYYCQQLSGYPHTFGQGTKLEIK	5.9	39.9 ratio of ELISA signal on target to background (streptavidin)
M38-F02 (Fab, V domains shown, Printed HC runs from VH into the start of CH1) VH: EVQLLESGGGLVQPGGSLRLSCAASGFTFSYYMMVWVRQAPGKGLEWVSYIYSSGGHTVYADSVKGRFTISRDNSKNTLYLQMNSLRAEDTAVYYCARDLFLYDFWSKGAFDIWGQGTMVTVSS VL: QSVLTQPPSVSVSPGQTASITCSGEKLGDKYVSWYQQKPGQSPSLVICEDSRRPSGIPERFSGSNSGNTATLTISGAQPMDEADYYCQAWDSSTAIFGPGTKVTVL	14	33.5 ratio of ELISA signal on target to background (streptavidin)
M8-A09 (Fab, V domains shown, Printed HC runs from VH into the start of CH1) VH: EVQLLESGGGLVQPGGSLRLSCAASGFTFSTYFMLWVRQAPGKGLEWVSSIYPSGGNTVYADSVKGRFTISRDNSKNTLYLQMNSLRAEDTAVYYCARAASPVRNYYYYGMDVWGQGTTVTVSS VL: QCELTQPPSESVSPGQTANITCSGDKLGNKYAYWYQQKPGQSPVLVIYQDNNRPSGIPERFSGSNSGNTATLTISGTQAIDEANYYCQAWDSRTVVFGGGTKLTVL	105	5.4 ratio of ELISA signal on target to background (streptavidin)
M29-D09 (Fab, V domains shown, Printed HC runs from VH into the start of CH1; also called 559A-M29-D09; 559A-M0029-D09) VH: EVQLLESGGGLVQPGGSLRLSCAASGFTFSWYTMVWVRQAPGKGLEWVSYIYPSGGATFYADSVKGRFTISRDNSKNTLYLQMNSLRAEDTAVYYCAMGSYDYIWGFYSDHWGQGTLVTVSS VL: QSALTQPPTVSVSPGQTARITCSGNKLGDKYVAWYQQKPGQSPMLVIYQDTKRPSRVSERFSGSNSANTATLSISGTQALDEADYYCQAWDSSIVIFGGGTRLTVL	0.7	47.5 ratio of ELISA signal on target to background (streptavidin)
M7-B04 (Fab, V domains shown, Printed HC runs from VH into the start of CH1) VH: EVQLLESGGGLVQPGGSLRLSCAASGFTFSWYSMVWVRQAPGKGLEWVSSISPSGGLTNYADSVKGRFTISRDNSKNTLYLQMNSLRAEDTAVYYCARHTAARPFYYYYMDVWGKGTTVTVSS VL: QSALTQPASVSGSPGQSITISCTGTNSDVGNYNLVSWYQQHPGEAPKLLIYEVNKRPSGVSNRFSGSKSGNTASLTISGLQAEDEADYLCCSYAGNRNFYVFGAGTKVTVL	54	4.1 ratio of ELISA signal on target to background (streptavidin)
M35-G04 (Fab, V domains shown, Printed HC runs from VH into the start of CH1; also called 559A-M35-G04; 559A-M0035-G04) VH: EVQLLESGGGLVQPGGSLRLSCAASGFTFSYYHMSWVRQAPGKGLEWVSVISPSGGSTKYADSVKGRFTISRDNSKNTLYLQMNSLRAEDTAVYYCARGGSSDYAWGSYRRPYYFDYWGQGTLVTVSS VL: DIQMTQSPATLSLSPGERATLSCRASQSVSSYLAWYQQKPGQAPRLLIYDASNRATGIPARFSGSGSGTDFTLTISSLEPEDFAVYYCQQRSNWPRGFTFGPGTKVDIK	2.9	11.1 ratio of ELISA signal on target to background (streptavidin)
X67-F10 (antibody, V domains shown, Single point mutant (F to T at P2 of HC CDR3) of M142-H08; Only variable domains and the start of CH1 are printed; also called 559A-X67-F10) VH: EVQLLESGGGLVQPGGSLRLSCAASGFTFSAYSMIWVRQAPGKGLEWVSYIRPSGGRTTYADSVKGRFTISRDNSKNTLYLQMNSLRAEDTAVYYCARGGLLLWTRELKSNYFDYWGQGTLVTVSS VL: DIQMTQSPSSLSAFVGDRVTITCRASQPIDNYLNWYHQKPGKAPKLLIYAASRLQSGVPSRLSGSGFGTDFTLTISSLQPEDFGNYYCQQSYTVPYTFGGGTKVEIR	1.3	–
M41-A11 (Fab, V domains shown, Printed HC runs from VH into the start of CH1) VH: EVQLLESGGGLVQPGGSLRLSCAASGFTFSHYRMSWVRQAPGKGLEWVSSIYPSGGRTVYADSVKGRFTISRDNSKNTLYLQMNSLRAEDTAVYYCAKDKFEWRLLFRGIGNDAFDIWGQGTMVTVSS VL: QSVLTQPPSVSVSPGQTASITCSGDKLGDKYTSWYQQRPGQSPVLVIYQDIKRPSGIPERFSGSNSGNTATLTISGTQAMDEADYYCQAWDSPNARVFGSGTKVTVL	13	28 ratio of ELISA signal on target to background (streptavidin)

Second part, the binder after the results:

Ki (human plasma kallikrein [1]) [nM]	Human pKal ELISA (T/B) (human plasma kallikrein [2])	Binder
11	28.8 ratio of ELISA signal on target to background (streptavidin)	M29-E09 (Fab, V domains shown, Printed HC runs from VH into the start of CH1) VH: EVQLLESGGGLVQPGGSLRLSCAASGFTFSWYEMGWVRQAPGKGLEWVSSIYSSGGGTMYADSVKGRFTISRDNSKNTLYLQMNSLRAEDTAVYYCARNPQYSGYDRSLSDGAFDIWGQGTMVTVSS VL: QYELTQPPSVSVSPGQTATITCSGDNLGNKYNSWYQQKPGQSPLLVIYQDTKRPSAIPERFSGSNSGNTATLTISGTQAMDEADYYCQAWDGNVVFGGGTKLTVL
0.2	–	X81-B01 (antibody, V domains shown, No variable domains are printed under the name X81-B01; also called germlined, codon optimized IgG version of X63-G06) VH: EVQLLESGGGLVQPGGSLRLSCAASGFTFSHYLMTWVRQAPGKGLEWVSYISPSGGHTIYADSVKGRFTISRDNSKNTLYLQMNSLRAEDTAVYYCARVARGIAARSRTSYFDYWGQGTLVTVSS VL: EIVLTQSPGTLSLSPGERATLSCRTSQFVNSNYLAWYQQKPGQAPRLLIYGASSRATGIPDRFSGSGSGTDFTLTISRLEPEDFAVYYCQQSSRTPWTFGQGTKVEIK
< 100	4 ratio of ELISA signal on target to background (streptavidin)	M73-D06 (Fab, V domains shown, Printed HC runs from VH into the start of CH1) VH: EVQLLESGGGLVQPGGSLRLSCAASGFTFSRYEMYWVRQAPGKGLEWVSSISSSGGPTAYADSVKGRFTISRDNSKNTLYLQMNSLRAEDTAMYYCAKGTPKWELLLRSIYIENAFDIWGQGTMVTVSS VL: QSELTQPPSASETPGQRVTISCSGSSSNIGSNTVSWFQQLPGSAPRLLIYNDHRRPSGVPDRFSGSKSGTSASLVISGLQSQDEADYYCSAWDDSLNGVVFGGGTKLTVL
0.9	–	X67-F01 (antibody, V domains shown, Single point mutant (F to Q at P2 of HC CDR3) of M142-H08; Only variable domains and the start of CH1 are printed; also called 559A-X67-F01) VH: EVQLLESGGGLVQPGGSLRLSCAASGFTFSAYSMIWVRQAPGKGLEWVSYIRPSGGRTTYADSVKGRFTISRDNSKNTLYLQMNSLRAEDTAVYYCARGGLLLWQRELKSNYFDYWGQGTLVTVSS VL: DIQMTQSPSSLSAFVGDRVTITCRASQPIDNYLNWYHQKPGKAPKLLIYAASRLQSGVPSRLSGSGFGTDFTLTISSLQPEDFGNYYCQQSYTVPYTFGGGTKVEIR
3.6	–	X67-H04 (antibody, V domains shown, Single point mutant (F to E at P2 of HC CDR3) of M142-H08; Only variable domains and the start of CH1 are printed; also called 559A-X67-H04) VH: EVQLLESGGGLVQPGGSLRLSCAASGFTFSAYSMIWVRQAPGKGLEWVSYIRPSGGRTTYADSVKGRFTISRDNSKNTLYLQMNSLRAEDTAVYYCARGGLLLWERELKSNYFDYWGQGTLVTVSS VL: DIQMTQSPSSLSAFVGDRVTITCRASQPIDNYLNWYHQKPGKAPKLLIYAASRLQSGVPSRLSGSGFGTDFTLTISSLQPEDFGNYYCQQSYTVPYTFGGGTKVEIR
0.35	–	X67-G04 (antibody, V domains shown, Single point mutant (F to A at P2 of HC CDR3) of M142-H08; Only variable domains and the start of CH1 are printed; also called 559A-X67-G04) VH: EVQLLESGGGLVQPGGSLRLSCAASGFTFSAYSMIWVRQAPGKGLEWVSYIRPSGGRTTYADSVKGRFTISRDNSKNTLYLQMNSLRAEDTAVYYCARGGLLLWARELKSNYFDYWGQGTLVTVSS VL: DIQMTQSPSSLSAFVGDRVTITCRASQPIDNYLNWYHQKPGKAPKLLIYAASRLQSGVPSRLSGSGFGTDFTLTISSLQPEDFGNYYCQQSYTVPYTFGGGTKVEIR
36	45.7 ratio of ELISA signal on target to background (streptavidin)	M7-E07 (Fab, V domains shown, Printed HC runs from VH into the start of CH1) VH: EVQLLESGGGLVQPGGSLRLSCAASGFTFSWYLMIWVRQAPGKGLEWVSYIYPSGGFTYYADSVKGRFTISRDNSKNTLYLQMNSLRAEDMAVYYCARTEGPLSWGYGMDVWGQGTTVTVSS VL: not shown
16	41.3 ratio of ELISA signal on target to background (streptavidin)	M27-E05 (Fab, V domains shown, Printed HC runs from VH into the start of CH1) VH: EVQLLESGGGLVQPGGSLRLSCAASGFTFSWYLMIWVRQAPGKGLEWVSYIYPSGGFTYYADSVKGRFTISRDNSKNTLYLQMNSLRAEDMAVYYCARTEGPLSWGYGMDVWGQGTTVTVSS VL: not shown
